According to patent publication US20250281613A1 (CELLECTIS S A, published 2025):

Molecular target: T1, CS1 recombinant protein (SEQ ID NO: 97), plate-bound
T1 chain: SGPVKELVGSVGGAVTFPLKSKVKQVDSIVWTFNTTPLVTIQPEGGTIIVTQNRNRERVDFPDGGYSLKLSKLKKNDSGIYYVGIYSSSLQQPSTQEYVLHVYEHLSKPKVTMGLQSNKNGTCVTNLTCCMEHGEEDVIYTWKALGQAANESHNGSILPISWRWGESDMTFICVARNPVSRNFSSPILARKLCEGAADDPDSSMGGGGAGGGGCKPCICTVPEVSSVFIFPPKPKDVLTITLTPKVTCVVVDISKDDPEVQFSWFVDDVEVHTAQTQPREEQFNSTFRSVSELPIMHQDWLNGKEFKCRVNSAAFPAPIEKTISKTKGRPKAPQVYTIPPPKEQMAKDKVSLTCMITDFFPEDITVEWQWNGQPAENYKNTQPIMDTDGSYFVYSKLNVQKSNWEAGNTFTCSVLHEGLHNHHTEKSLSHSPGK
Assay: cell-based or functional assay

- RNA-seq of CAR+ T cells 24 h after activation on plate-bound CS1 protein versus unactivated cells: genes induced (fold change greater than 5): 159 genes
B1: CS1-specific second generation CAR (SEQ ID NO: 96) on T cells (other)
chain: QVQLQQPGAELVRPGASVKLSCKASGYSFTTYWMNWVKQRPGQGLEWIGMIHPSDSETRLNQKFKDKATLTVDKSSSTAYMQLSSPTSEDSAVYYCARSTMIATRAMDYWGQGTSVTVSSGGGGSGGGGSGGGGSDIVMTQSQKSMSTSVGDRVSITCKASQDVITGVAWYQQKPGQSPKLLIYSASYRYTGVPDRFTGSGSGTDFTFTISNVQAEDLAVYYCQQHYSTPLTFGAGTKLELKTTTPAPRPPTPAPTIASQPLSLRPEACRPAAGGAVHTRGLDFACDIYIWAPLAGTCGVLLLSLVITLYCKRGRKKLLYIFKQPFMRPVQTTQEEDGCSCRFPEEEEGGCELRVKFSRSADAPAYQQGQNQLYNELNLGRREEYDVLDKRRGRDPEMGGKPRRKNPQEGLYNELQKDKMAEAYSEIGMKGERRRGKGHDGLYQGLSTATKDTYDALHMQALPPR
